Reference: publication PMC6201861

Target: mAb-hERG1
Assay: SPR; Biacore T200; mAb-hERG1 bound to a Protein G pre-coated CM5 chip (7693 RU); S5-Pore applied at 10, 50, 100, 500 nM, single cycle kinetics; contact 30 s, dissociation 120 s, 30 ul/min

mAb-hERG1, sequence (heavy, as listed by the source, chain 1 of 2): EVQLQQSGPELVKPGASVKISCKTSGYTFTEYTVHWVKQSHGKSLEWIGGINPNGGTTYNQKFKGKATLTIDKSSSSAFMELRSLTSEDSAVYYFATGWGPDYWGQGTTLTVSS
mAb-hERG1, sequence (light, as listed by the source, chain 2 of 2): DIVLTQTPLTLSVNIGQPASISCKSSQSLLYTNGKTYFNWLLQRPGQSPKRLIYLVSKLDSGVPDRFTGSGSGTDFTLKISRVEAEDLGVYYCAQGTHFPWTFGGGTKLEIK

EQPHMDSRIGWLHN [S5-Pore peptide] showed a Kd of 16.2 nM, a koff of 0.0258 s⁻¹ and a kon of 1.6e+06 M⁻¹ s⁻¹.
